Experimental data: patent publication US20210253718A1, “FRIZZLED5 PROTEIN-BINDING AGENTS” (Modmab Therapeutics Corporation, priority 2016, published 2021)

T1: FZD3 CRD (Homo sapiens, UniProt Q9NPG1)
T1 construct: CRD of FZD1, FZD2, FZD3, FZD4, FZD5, FZD6, FZD7, FZD8, FZD9 or FZD10; GPI anchor signal (C); expressed in transfected cells; host or cells: CHO cells, lentiviral pLenti-puro
T1 sequence (Q9NPG1 23-136 limits assumed): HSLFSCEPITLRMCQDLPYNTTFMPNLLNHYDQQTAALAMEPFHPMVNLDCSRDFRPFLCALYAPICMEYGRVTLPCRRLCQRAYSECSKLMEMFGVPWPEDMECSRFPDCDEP

T2: FZD8 CRD (Homo sapiens, UniProt Q9H461)
T2 construct: K31-D155; GPI anchor signal (C); expressed in transfected cells; host or cells: CHO cells, lentiviral pLenti-puro
T2 sequence (Q9H461 31-155): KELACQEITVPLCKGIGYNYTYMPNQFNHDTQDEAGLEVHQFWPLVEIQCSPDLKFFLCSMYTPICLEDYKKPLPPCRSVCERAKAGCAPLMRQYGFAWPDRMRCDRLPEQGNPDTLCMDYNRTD


Assays:
[1] = system: CHO cells not expressing Frizzled CRD; assay: Flow cytometry of anti-FZD5 Fab binding to CHO cells not expressing Frizzled CRD (background)
Source text: The binding of anti-FZD5 Fabs to cell surface-expressed Frizzled protein was further determined for each member of the Frizzled family via flow cytometry and immunofluorescence analysis of a panel of 10 CHO cell lines, each ectopically over-expressing the extracellular cysteine-rich domain (CRD) of a different Frizzled protein family member.

RWP1 cells [2] = assay: Effect of anti-FZD5 Fabs on proliferation of pancreatic cancer cell lines (percent growth inhibition); assay type: cell-based, human; details: Fab 2 μg/ml
RWP1 cells [3] = assay: as above; assay type: cell-based, human; details: Fab 10 μg/ml
Protocol: (§1) The effect of presently disclosed anti-FZD5 Fabs on proliferation of RNF43 loss-of-function mutant pancreatic cancer cell lines HPAFII, PATU8988S and ASPC-1; and on pancreatic cancer cell line RWP1, was tested at […] and 10 μg/ml.

ASPC-1 cells [4] = assay: as above; assay type: cell-based, human; details: Fab 10 μg/ml
Protocol: as §1

HPAFII cells = assay: as above; assay type: cell-based, human; details: for percent growth inhibition, HPAFII 2 μg/ml: Fab 2 μg/ml; for percent growth inhibition, HPAFII 10 μg/ml: Fab 10 μg/ml
Protocol: as §1

PATU8988S cells [5] = assay: as above; assay type: cell-based, human; details: Fab 10 μg/ml
Protocol: as §1

PATU8988S cells [6] = assay: as above; assay type: cell-based, human; details: Fab 2 μg/ml
FZD7 CRD = biological target: T3, FZD7 CRD (Homo sapiens, UniProt O75084); assay: Immunofluorescence of anti-FZD5 Fab binding to CHO cells overexpressing Frizzled CRD; set-up: key: −: no binding; +: very weak binder; ++: weak binder; +++: good binder; ++++: very good binder
T3 construct: D45-S169; GPI anchor signal (C); expressed in transfected cells; host or cells: CHO cells, lentiviral pLenti-puro
Procedure, shortened: (§2)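 CHO panel, 10 lines, each w/ one human FZD CRD-myc-GPI (lentiviral). Anti-FZD5 Fabs applied; surface binding scored by IF, cross-checked by FACS.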

FZD3 CRD = biological target: T1, FZD3 CRD; assay: as above; set-up: key: −: no binding; +: very weak binder; ++: weak binder; +++: good binder; ++++: very good binder
Procedure, shortened: as §2

FZD8 CRD = biological target: T2, FZD8 CRD; assay: as above; set-up: key: −: no binding; +: very weak binder; ++: weak binder; +++: good binder; ++++: very good binder
Procedure, shortened: as §2

ASPC-1 cells [7] = assay: Effect of anti-FZD5 Fabs on proliferation of pancreatic cancer cell lines (percent growth inhibition); assay type: cell-based, human; details: Fab 2 μg/ml

Row | Immunofluorescence binding, Frizzled CRD overexpressed on CHO cells: FZD7 (FZD7 CRD) | Immunofluorescence binding, Frizzled CRD overexpressed on CHO cells: FZD3 (FZD3 CRD) | Immunofluorescence binding, Frizzled CRD overexpressed on CHO cells: FZD8 (FZD8 CRD) | Molecule | Median fluorescence, Frizzled CRD overexpressed on CHO cells: None [1] | percent growth inhibition, RWP1 2 μg/ml (RWP1 cells [2]) [%] | percent growth inhibition, RWP1 10 μg/ml (RWP1 cells [3]) [%] | percent growth inhibition, ASPC-1 10 μg/ml (ASPC-1 cells [4]) [%] | percent growth inhibition, HPAFII 2 μg/ml (HPAFII cells) [%] | percent growth inhibition, HPAFII 10 μg/ml (HPAFII cells) [%] | percent growth inhibition, PATU8988s 10 μg/ml (PATU8988S cells [5]) [%] | percent growth inhibition, PATU8988s 2 μg/ml (PATU8988S cells [6]) [%] | percent growth inhibition, ASPC-1 2 μg/ml (ASPC-1 cells [7]) [%]
1 | ++++ | − | + | Fab-2915: anti-FZD5 Fab with antibody variable region Fv-2915; CDR SEQ ID NOs: 35, 36, 54, 93, 130, 166 (antibody, V domains shown) VH: EVQLVESGGGLVQPGGSLRLSCAASGFNIYYYSMHWVRQAPGKGLEWVASIYSSYGYTSYADSVKGRFTISADTSKNTAYLQMNSLRAEDTAVYYCARGYHYYPYYSGLDYWGQGTLVTVSS VL: DIQMTQSPSSLSASVGDRVTITCRASQSVSSAVAWYQQKPGKAPKLLIYSASSLYSGVPSRFSGSRSGTDFTLTISSLQPEDFATYYCQQAYYHSLITFGQGTKVEIK | 4.49 | 48.66 | 45.04 | 4.18 | −16.37 | −31.87 | −19.02 | −6.43 | 5.51
2 | + | − | + | Fab-2918: anti-FZD5 Fab with antibody variable region Fv-2918; CDR SEQ ID NOs: 35, 36, 57, 96, 133, 169 (antibody, V domains shown) VH: EVQLVESGGGLVQPGGSLRLSCAASGFNLSYSSIHWVRQAPGKGLEWVASIYSSYSSTSYADSVKGRFTISADTSKNTAYLQMNSLRAEDTAVYYCARFGYWAIDYWGQGTLVTVSS VL: DIQMTQSPSSLSASVGDRVTITCRASQSVSSAVAWYQQKPGKAPKLLIYSASSLYSGVPSRFSGSRSGTDFTLTISSLQPEDFATYYCQQAFGASLFTFGQGTKVEIK | 3.13 | 3.49 | 39.24 | 45.56 | 37.15 | 44.60 | −1.92 | −0.86 | 44.67
3 | − | − | + | Fab-2921: anti-FZD5 Fab with antibody variable region Fv-2921; CDR SEQ ID NOs: 35, 36, 60, 98, 136, 162 (antibody, V domains shown) VH: EVQLVESGGGLVQPGGSLRLSCAASGFNISYYYIHWVRQAPGKGLEWVASIYPSSGSTSYADSVKGRFTISADTSKNTAYLQMNSLRAEDTAVYYCARGAMDYWGQGTLVTVSS VL: DIQMTQSPSSLSASVGDRVTITCRASQSVSSAVAWYQQKPGKAPKLLIYSASSLYSGVPSRFSGSRSGTDFTLTISSLQPEDFATYYCQQWYAGSLITFGQGTKVEIK | 3.22 | −4.47 | −0.10 | 47.95 | 30.70 | 44.23 | −16.29 | −1.56 | 43.20
4 | − | − | + | Fab-2920: anti-FZD5 Fab with antibody variable region Fv-2920; CDR SEQ ID NOs: 35, 36, 59, 98, 135, 170 (antibody, V domains shown) VH: EVQLVESGGGLVQPGGSLRLSCAASGFNISYYYIHWVRQAPGKGLEWVASIYPSSGSTSYADSVKGRFTISADTSKNTAYLQMNSLRAEDTAVYYCARGGMDYWGQGTLVTVSS VL: DIQMTQSPSSLSASVGDRVTITCRASQSVSSAVAWYQQKPGKAPKLLIYSASSLYSGVPSRFSGSRSGTDFTLTISSLQPEDFATYYCQQWFAGALITFGQGTKVEIK | 3.37 | −16.26 | −3.09 | 40.69 | 29.48 | 32.93 | −5.60 | 6.20 | 33.66
5 | − | − | ++ | Fab-2919: anti-FZD5 Fab with antibody variable region Fv-2919; CDR SEQ ID NOs: 35, 36, 58, 97, 134, 155 (antibody, V domains shown) VH: EVQLVESGGGLVQPGGSLRLSCAASGFNISYSYIHWVRQAPGKGLEWVASIYSSSGSTSYADSVKGRFTISADTSKNTAYLQMNSLRAEDTAVYYCARGAIDYWGQGTLVTVSS VL: DIQMTQSPSSLSASVGDRVTITCRASQSVSSAVAWYQQKPGKAPKLLIYSASSLYSGVPSRFSGSRSGTDFTLTISSLQPEDFATYYCQQWYSSGHVLITFGQGTKVEIK | 3.08 | 7.36 | 22.54 | 35.99 | 16.25 | 36.80 | −11.49 | −7.74 | 30.04
6 | ++++ | − | + | Fab-2916: anti-FZD5 Fab with antibody variable region Fv-2916; CDR SEQ ID NOs: 35, 36, 55, 94, 131, 167 (antibody, V domains shown) VH: EVQLVESGGGLVQPGGSLRLSCAASGFNISYSSIHWVRQAPGKGLEWVASIYPSYSYTYYADSVKGRFTISADTSKNTAYLQMNSLRAEDTAVYYCARYGYYGMDYWGQGTLVTVSS VL: DIQMTQSPSSLSASVGDRVTITCRASQSVSSAVAWYQQKPGKAPKLLIYSASSLYSGVPSRFSGSRSGTDFTLTISSLQPEDFATYYCQQWYHYPYLITFGQGTKVEIK | 4.22 | 1.68 | 30.61 | 42.26 | 31.28 | 52.29 | −19.08 | −25.67 | 44.03
